# Data taken from paper doi:10.1101/098400 (bioRxiv, 2017).
# B1: Rous Sarcoma Virus capsid protein (RSV CA), wild type (natural protein, Rous Sarcoma Virus (strain Prague C), UniProt P03322 240-476, looked up)
# chain: PVVIKTEGPAWTPLEPKLITRLADTVRTKGLRSPITMAEVEALMSSPLLPHDVTNLMRVILGPAPYALWMDAWGVQLQTVIAAATRDPRHPANGQGRGERTNLNRLKGLADGMVGNPQGQAALLRPGELVAITASALQAFREVARLAEPAGPWADIMQGPSESFVDFANRLIKAVEGSDLPPSARAPVIIDCFRQKSQPDIQQLIRTAPSTLTTPGEIIKYVLDRQKTAPLTDQGIA
# Molecular target: the molecule itself
# Assay: in vitro assembly seen by negative-stain transmission electron microscopy
protein,measurement,value
B1,stoichiometry N,6
